# Source: publication PMC9082959, “Mechanism of Assembly of the Non-Covalent Spectrin Tetramerization Domain from Intrinsically Disordered Partners” (Journal of molecular biology, 2013)
# B1: α0α1 (erythrocyte α-spectrin residues 2–163), wild type (domain or fragment, human, UniProt P02549 2-163, looked up)
# chain: EQFPKETVVESSGPKVLETAEEIQERRQEVLTRYQSFKERVAERGQKLEDSYHLQVFKRDADDLGKWIMEKVNILTDKSYEDPTNIQGKYQKHQSLEAEVQTKSRLMSELEKTREERFTMGHSAHEETKAHIEELRHLWDLLLELTLEKGDQLLRALKFQQY
# notes: synthetic gene (GenScript) in a modified pRSETA plasmid; also called α1α0; source: E. coli C41(DE3), purified (Ni2+ agarose, thrombin cleavage, gel filtration)
# Key:
# Test in all cases: ITC; β16β17 at 25–50 μM in the cell titrated with 15–20 injections to 2–2.5 eq of α0α1; one-site binding model; PBS (50 mM sodium phosphate, 150 mM NaCl, pH 7.04), 25 °C; mutants only against the wild-type partner
# Details in all cases: both partners purified
# β16β17 F51L = β16β17 F51L (human, UniProt P11277 1898-2083, F51L (domain identifier), printed F2054G as protein identifier, The table's protein identifier F2054G is taken as a typo: the domain identifier is F51L (offset 2003), and the text says aromatic residues were mutated to Ala or Leu)
# β16β17 Y28A = molecular target: T1, β16β17 Y28A (human, UniProt P11277 1898-2083, Y2031A)
# T1 construct: erythrocyte β-spectrin, human, residues 1898-2083 (β16β17); mutant of m2; also called Y2031A; source: E. coli C41(DE3), purified (Ni2+ agarose, thrombin cleavage, gel filtration)
# T1 sequence (looked up): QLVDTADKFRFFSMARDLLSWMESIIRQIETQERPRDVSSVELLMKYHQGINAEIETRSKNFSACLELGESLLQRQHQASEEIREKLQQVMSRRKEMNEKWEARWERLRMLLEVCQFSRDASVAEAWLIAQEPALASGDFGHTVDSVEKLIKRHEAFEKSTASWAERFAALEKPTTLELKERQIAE
# β16β17 F62L = molecular target: T2, β16β17 F62L (human, UniProt P11277 1898-2083, F2065L)
# T2 construct: erythrocyte β-spectrin, human, residues 1898-2083 (β16β17); mutant of m2; also called F2065L; source: E. coli C41(DE3), purified (Ni2+ agarose, thrombin cleavage, gel filtration)
# T2 sequence (looked up): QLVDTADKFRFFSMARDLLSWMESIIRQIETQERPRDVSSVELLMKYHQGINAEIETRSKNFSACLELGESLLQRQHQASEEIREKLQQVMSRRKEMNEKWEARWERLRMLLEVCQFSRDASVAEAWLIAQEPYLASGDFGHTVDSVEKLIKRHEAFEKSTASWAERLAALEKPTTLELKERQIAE
# β16β17 V41A = molecular target: T3, β16β17 V41A (human, UniProt P11277 1898-2083, V2044A)
# T3 construct: erythrocyte β-spectrin, human, residues 1898-2083 (β16β17); mutant of m2; also called V2044A; source: E. coli C41(DE3), purified (Ni2+ agarose, thrombin cleavage, gel filtration)
# T3 sequence (looked up): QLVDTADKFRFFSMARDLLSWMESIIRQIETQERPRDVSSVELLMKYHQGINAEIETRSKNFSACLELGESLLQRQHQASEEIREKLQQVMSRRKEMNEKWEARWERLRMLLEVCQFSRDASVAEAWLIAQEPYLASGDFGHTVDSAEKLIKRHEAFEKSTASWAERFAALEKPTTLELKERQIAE
# β16β17 F62A = molecular target: T4, β16β17 F62A (human, UniProt P11277 1898-2083, F2065A)
# T4 construct: erythrocyte β-spectrin, human, residues 1898-2083 (β16β17); mutant of m2; also called F2065A; source: E. coli C41(DE3), purified (Ni2+ agarose, thrombin cleavage, gel filtration)
# T4 sequence (looked up): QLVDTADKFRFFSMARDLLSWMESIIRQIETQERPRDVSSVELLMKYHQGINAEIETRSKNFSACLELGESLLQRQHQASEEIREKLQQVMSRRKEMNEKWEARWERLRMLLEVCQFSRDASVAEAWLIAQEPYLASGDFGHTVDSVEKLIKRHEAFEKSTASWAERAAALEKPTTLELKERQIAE
# β16β17 F11L = molecular target: T5, β16β17 F11L (human, UniProt P11277 1898-2083, F2014L)
# T5 construct: erythrocyte β-spectrin, human, residues 1898-2083 (β16β17); mutant of m2; also called F2014L; source: E. coli C41(DE3), purified (Ni2+ agarose, thrombin cleavage, gel filtration)
# T5 sequence (looked up): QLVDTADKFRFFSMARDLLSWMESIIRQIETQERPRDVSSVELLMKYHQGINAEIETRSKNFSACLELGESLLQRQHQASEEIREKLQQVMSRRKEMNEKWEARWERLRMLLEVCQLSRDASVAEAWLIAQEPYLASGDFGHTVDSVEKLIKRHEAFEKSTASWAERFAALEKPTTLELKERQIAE
# β16β17 Y28L = molecular target: T6, β16β17 Y28L (human, UniProt P11277 1898-2083, Y2031L)
# T6 construct: erythrocyte β-spectrin, human, residues 1898-2083 (β16β17); mutant of m2; also called Y2031L; source: E. coli C41(DE3), purified (Ni2+ agarose, thrombin cleavage, gel filtration)
# T6 sequence (looked up): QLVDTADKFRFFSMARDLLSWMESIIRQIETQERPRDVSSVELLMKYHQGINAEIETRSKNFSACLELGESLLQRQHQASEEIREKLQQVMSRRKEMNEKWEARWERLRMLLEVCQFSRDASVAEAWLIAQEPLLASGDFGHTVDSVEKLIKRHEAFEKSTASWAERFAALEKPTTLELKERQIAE
binder,measurement,setting,value
B1,Ka,β16β17 F51L,180000 M⁻¹
same,Ka,β16β17 Y28A,180000 M⁻¹
same,Ka,β16β17 F62L,100000 M⁻¹
same,Ka,β16β17 V41A,420000 M⁻¹
same,Ka,β16β17 F62A,13000 M⁻¹
same,Ka,β16β17 F11L,16000 M⁻¹
same,Ka,β16β17 Y28L,170000 M⁻¹
